The source of these data is patent US20210388087A1 (Chugai, published 2021).

B1: H183/L072 VL F96K (antibody, name in Kabat numbering, V domains shown)
VH: QVQLVESGGGLVQPGRSLRLSCAASGFTFSNAWMHWVRQAPGKGLEWVAQIKDKGNAYAAYYAPSVKGRFTISRDDSKNSIYLQMNSLKTEDTAVYYCHYVHYASASTVLPAFGVDAWGQGTTVTVSS
VL: DIVMTQSPLSLPVTPGEPASISCQASQELVHMNRNTYLHWYQQKPGQAPRLLIYKVSNRFPGVPDRFSGSGSGTDFTLKISRVEAEDVGVYYCAQGTSVPKTFGQGTKLEIK
B2: H183/L072 VL H27dS (antibody, name in Kabat numbering, V domains shown)
VH: QVQLVESGGGLVQPGRSLRLSCAASGFTFSNAWMHWVRQAPGKGLEWVAQIKDKGNAYAAYYAPSVKGRFTISRDDSKNSIYLQMNSLKTEDTAVYYCHYVHYASASTVLPAFGVDAWGQGTTVTVSS
VL: DIVMTQSPLSLPVTPGEPASISCQASQELVSMNRNTYLHWYQQKPGQAPRLLIYKVSNRFPGVPDRFSGSGSGTDFTLKISRVEAEDVGVYYCAQGTSVPFTFGQGTKLEIK
B3: H183/L072 VL F96S (antibody, name in Kabat numbering, V domains shown)
VH: QVQLVESGGGLVQPGRSLRLSCAASGFTFSNAWMHWVRQAPGKGLEWVAQIKDKGNAYAAYYAPSVKGRFTISRDDSKNSIYLQMNSLKTEDTAVYYCHYVHYASASTVLPAFGVDAWGQGTTVTVSS
VL: DIVMTQSPLSLPVTPGEPASISCQASQELVHMNRNTYLHWYQQKPGQAPRLLIYKVSNRFPGVPDRFSGSGSGTDFTLKISRVEAEDVGVYYCAQGTSVPSTFGQGTKLEIK
B4: H183/L072 VL G91Q (antibody, name in Kabat numbering, V domains shown)
VH: QVQLVESGGGLVQPGRSLRLSCAASGFTFSNAWMHWVRQAPGKGLEWVAQIKDKGNAYAAYYAPSVKGRFTISRDDSKNSIYLQMNSLKTEDTAVYYCHYVHYASASTVLPAFGVDAWGQGTTVTVSS
VL: DIVMTQSPLSLPVTPGEPASISCQASQELVHMNRNTYLHWYQQKPGQAPRLLIYKVSNRFPGVPDRFSGSGSGTDFTLKISRVEAEDVGVYYCAQQTSVPFTFGQGTKLEIK
B5: H183/L072 VL G91S (antibody, name in Kabat numbering, V domains shown)
VH: QVQLVESGGGLVQPGRSLRLSCAASGFTFSNAWMHWVRQAPGKGLEWVAQIKDKGNAYAAYYAPSVKGRFTISRDDSKNSIYLQMNSLKTEDTAVYYCHYVHYASASTVLPAFGVDAWGQGTTVTVSS
VL: DIVMTQSPLSLPVTPGEPASISCQASQELVHMNRNTYLHWYQQKPGQAPRLLIYKVSNRFPGVPDRFSGSGSGTDFTLKISRVEAEDVGVYYCAQSTSVPFTFGQGTKLEIK
B6: H183/L072 VL F96Q (antibody, name in Kabat numbering, V domains shown)
VH: QVQLVESGGGLVQPGRSLRLSCAASGFTFSNAWMHWVRQAPGKGLEWVAQIKDKGNAYAAYYAPSVKGRFTISRDDSKNSIYLQMNSLKTEDTAVYYCHYVHYASASTVLPAFGVDAWGQGTTVTVSS
VL: DIVMTQSPLSLPVTPGEPASISCQASQELVHMNRNTYLHWYQQKPGQAPRLLIYKVSNRFPGVPDRFSGSGSGTDFTLKISRVEAEDVGVYYCAQGTSVPQTFGQGTKLEIK
B7: H183/L072 VL G91E (antibody, name in Kabat numbering, V domains shown)
VH: QVQLVESGGGLVQPGRSLRLSCAASGFTFSNAWMHWVRQAPGKGLEWVAQIKDKGNAYAAYYAPSVKGRFTISRDDSKNSIYLQMNSLKTEDTAVYYCHYVHYASASTVLPAFGVDAWGQGTTVTVSS
VL: DIVMTQSPLSLPVTPGEPASISCQASQELVHMNRNTYLHWYQQKPGQAPRLLIYKVSNRFPGVPDRFSGSGSGTDFTLKISRVEAEDVGVYYCAQETSVPFTFGQGTKLEIK
B8: H183/L072 VL H27dG (antibody, name in Kabat numbering, V domains shown)
VH: QVQLVESGGGLVQPGRSLRLSCAASGFTFSNAWMHWVRQAPGKGLEWVAQIKDKGNAYAAYYAPSVKGRFTISRDDSKNSIYLQMNSLKTEDTAVYYCHYVHYASASTVLPAFGVDAWGQGTTVTVSS
VL: DIVMTQSPLSLPVTPGEPASISCQASQELVGMNRNTYLHWYQQKPGQAPRLLIYKVSNRFPGVPDRFSGSGSGTDFTLKISRVEAEDVGVYYCAQGTSVPFTFGQGTKLEIK
B9: H183/L072 VL H27dF (antibody, name in Kabat numbering, V domains shown)
VH: QVQLVESGGGLVQPGRSLRLSCAASGFTFSNAWMHWVRQAPGKGLEWVAQIKDKGNAYAAYYAPSVKGRFTISRDDSKNSIYLQMNSLKTEDTAVYYCHYVHYASASTVLPAFGVDAWGQGTTVTVSS
VL: DIVMTQSPLSLPVTPGEPASISCQASQELVFMNRNTYLHWYQQKPGQAPRLLIYKVSNRFPGVPDRFSGSGSGTDFTLKISRVEAEDVGVYYCAQGTSVPFTFGQGTKLEIK
B10: H183/L072 VL F96T (antibody, name in Kabat numbering, V domains shown)
VH: QVQLVESGGGLVQPGRSLRLSCAASGFTFSNAWMHWVRQAPGKGLEWVAQIKDKGNAYAAYYAPSVKGRFTISRDDSKNSIYLQMNSLKTEDTAVYYCHYVHYASASTVLPAFGVDAWGQGTTVTVSS
VL: DIVMTQSPLSLPVTPGEPASISCQASQELVHMNRNTYLHWYQQKPGQAPRLLIYKVSNRFPGVPDRFSGSGSGTDFTLKISRVEAEDVGVYYCAQGTSVPTTFGQGTKLEIK
B11: H183/L072 VL H27dT (antibody, name in Kabat numbering, V domains shown)
VH: QVQLVESGGGLVQPGRSLRLSCAASGFTFSNAWMHWVRQAPGKGLEWVAQIKDKGNAYAAYYAPSVKGRFTISRDDSKNSIYLQMNSLKTEDTAVYYCHYVHYASASTVLPAFGVDAWGQGTTVTVSS
VL: DIVMTQSPLSLPVTPGEPASISCQASQELVTMNRNTYLHWYQQKPGQAPRLLIYKVSNRFPGVPDRFSGSGSGTDFTLKISRVEAEDVGVYYCAQGTSVPFTFGQGTKLEIK
B12: H183/L072 VL H27dQ (antibody, name in Kabat numbering, V domains shown)
VH: QVQLVESGGGLVQPGRSLRLSCAASGFTFSNAWMHWVRQAPGKGLEWVAQIKDKGNAYAAYYAPSVKGRFTISRDDSKNSIYLQMNSLKTEDTAVYYCHYVHYASASTVLPAFGVDAWGQGTTVTVSS
VL: DIVMTQSPLSLPVTPGEPASISCQASQELVQMNRNTYLHWYQQKPGQAPRLLIYKVSNRFPGVPDRFSGSGSGTDFTLKISRVEAEDVGVYYCAQGTSVPFTFGQGTKLEIK
B13: H183/L072 VL G91K (antibody, name in Kabat numbering, V domains shown)
VH: QVQLVESGGGLVQPGRSLRLSCAASGFTFSNAWMHWVRQAPGKGLEWVAQIKDKGNAYAAYYAPSVKGRFTISRDDSKNSIYLQMNSLKTEDTAVYYCHYVHYASASTVLPAFGVDAWGQGTTVTVSS
VL: DIVMTQSPLSLPVTPGEPASISCQASQELVHMNRNTYLHWYQQKPGQAPRLLIYKVSNRFPGVPDRFSGSGSGTDFTLKISRVEAEDVGVYYCAQKTSVPFTFGQGTKLEIK
B14: H183/L072 VL G91H (antibody, name in Kabat numbering, V domains shown)
VH: QVQLVESGGGLVQPGRSLRLSCAASGFTFSNAWMHWVRQAPGKGLEWVAQIKDKGNAYAAYYAPSVKGRFTISRDDSKNSIYLQMNSLKTEDTAVYYCHYVHYASASTVLPAFGVDAWGQGTTVTVSS
VL: DIVMTQSPLSLPVTPGEPASISCQASQELVHMNRNTYLHWYQQKPGQAPRLLIYKVSNRFPGVPDRFSGSGSGTDFTLKISRVEAEDVGVYYCAQHTSVPFTFGQGTKLEIK
B15: H183/L072 VL G91T (antibody, name in Kabat numbering, V domains shown)
VH: QVQLVESGGGLVQPGRSLRLSCAASGFTFSNAWMHWVRQAPGKGLEWVAQIKDKGNAYAAYYAPSVKGRFTISRDDSKNSIYLQMNSLKTEDTAVYYCHYVHYASASTVLPAFGVDAWGQGTTVTVSS
VL: DIVMTQSPLSLPVTPGEPASISCQASQELVHMNRNTYLHWYQQKPGQAPRLLIYKVSNRFPGVPDRFSGSGSGTDFTLKISRVEAEDVGVYYCAQTTSVPFTFGQGTKLEIK
B16: H183/L072 VL H27dD (antibody, name in Kabat numbering, V domains shown)
VH: QVQLVESGGGLVQPGRSLRLSCAASGFTFSNAWMHWVRQAPGKGLEWVAQIKDKGNAYAAYYAPSVKGRFTISRDDSKNSIYLQMNSLKTEDTAVYYCHYVHYASASTVLPAFGVDAWGQGTTVTVSS
VL: DIVMTQSPLSLPVTPGEPASISCQASQELVDMNRNTYLHWYQQKPGQAPRLLIYKVSNRFPGVPDRFSGSGSGTDFTLKISRVEAEDVGVYYCAQGTSVPFTFGQGTKLEIK
B17: H183/L072 VL G91D (antibody, name in Kabat numbering, V domains shown)
VH: QVQLVESGGGLVQPGRSLRLSCAASGFTFSNAWMHWVRQAPGKGLEWVAQIKDKGNAYAAYYAPSVKGRFTISRDDSKNSIYLQMNSLKTEDTAVYYCHYVHYASASTVLPAFGVDAWGQGTTVTVSS
VL: DIVMTQSPLSLPVTPGEPASISCQASQELVHMNRNTYLHWYQQKPGQAPRLLIYKVSNRFPGVPDRFSGSGSGTDFTLKISRVEAEDVGVYYCAQDTSVPFTFGQGTKLEIK
B18: H183/L072 VL H27dE (antibody, name in Kabat numbering, V domains shown)
VH: QVQLVESGGGLVQPGRSLRLSCAASGFTFSNAWMHWVRQAPGKGLEWVAQIKDKGNAYAAYYAPSVKGRFTISRDDSKNSIYLQMNSLKTEDTAVYYCHYVHYASASTVLPAFGVDAWGQGTTVTVSS
VL: DIVMTQSPLSLPVTPGEPASISCQASQELVEMNRNTYLHWYQQKPGQAPRLLIYKVSNRFPGVPDRFSGSGSGTDFTLKISRVEAEDVGVYYCAQGTSVPFTFGQGTKLEIK
B19: H183/L072 VL H27dK (antibody, name in Kabat numbering, V domains shown)
VH: QVQLVESGGGLVQPGRSLRLSCAASGFTFSNAWMHWVRQAPGKGLEWVAQIKDKGNAYAAYYAPSVKGRFTISRDDSKNSIYLQMNSLKTEDTAVYYCHYVHYASASTVLPAFGVDAWGQGTTVTVSS
VL: DIVMTQSPLSLPVTPGEPASISCQASQELVKMNRNTYLHWYQQKPGQAPRLLIYKVSNRFPGVPDRFSGSGSGTDFTLKISRVEAEDVGVYYCAQGTSVPFTFGQGTKLEIK
B20: H183/L072 VL H27dN (antibody, name in Kabat numbering, V domains shown)
VH: QVQLVESGGGLVQPGRSLRLSCAASGFTFSNAWMHWVRQAPGKGLEWVAQIKDKGNAYAAYYAPSVKGRFTISRDDSKNSIYLQMNSLKTEDTAVYYCHYVHYASASTVLPAFGVDAWGQGTTVTVSS
VL: DIVMTQSPLSLPVTPGEPASISCQASQELVNMNRNTYLHWYQQKPGQAPRLLIYKVSNRFPGVPDRFSGSGSGTDFTLKISRVEAEDVGVYYCAQGTSVPFTFGQGTKLEIK

The target in this assay is T1, Human CD3eg linker (human).
T1 construct: Single-chain construct; also called recombinant human CD3
T1 chain: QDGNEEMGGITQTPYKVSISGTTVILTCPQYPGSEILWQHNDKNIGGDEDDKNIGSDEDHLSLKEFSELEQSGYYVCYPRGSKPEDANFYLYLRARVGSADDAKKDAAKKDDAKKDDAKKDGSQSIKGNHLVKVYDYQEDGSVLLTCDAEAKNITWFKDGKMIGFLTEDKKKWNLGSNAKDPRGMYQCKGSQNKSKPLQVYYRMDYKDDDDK
Nature of the assay: SPR; fold vs parent H183/L072. (In SPR one partner is held on a chip, and binding of the other changes the refractive index at the surface.)
Take B1: the “fold change of affinity” value amounted to 0 fold.
As to B2, the “fold change of affinity” value came to 0 fold.
As to B3, the “fold change of affinity” value was found to be 0 fold.
In the case of B4, the “fold change of affinity” value was determined as 0 fold.
For B5, the “fold change of affinity” value was 0 fold.
For the molecule B6, the “fold change of affinity” value was 0 fold.
For the molecule B7, the “fold change of affinity” value came to 0 fold.
As to B8, the “fold change of affinity” value stood at 0 fold.
In the case of B9, the “fold change of affinity” value is 0.2 fold.
Consider B10, for which the “fold change of affinity” value amounted to 0 fold.
With B11, the “fold change of affinity” value worked out at 0 fold.
Turning to B12, the “fold change of affinity” value was found to be 0 fold.
As to B13, the “fold change of affinity” value was found to be 0 fold.
To B14 belongs 0 fold.
For B15 the value was 0 fold; for B16, 0 fold.
To B17 belongs 0 fold; to B18, 0 fold.
B19: the “fold change of affinity” value came out at 0 fold.
Consider B20, for which the “fold change of affinity” value turned out to be 0 fold.
